According to patent publication US20220048962:

Tested on: MBP-CIRTS-1 (ORF5-TBP6.7-SMG6 Pin nuclease fusion) (synthetic fusion (Grapevine virus A ORF5; Homo sapiens U1A-derived TBP6.7; Homo sapiens SMG6))
Assay: FP filter
Conditions: apparent; text states ~50-fold weaker than on-target

**Q.** How did the Kd turn out when “non-targeting TAR-hairpin gRNA ; model RNA substrate (R1)” was run?
**A.** 500 nM
